Laboratory results reported in publication PMC2806001, “Identification of Peroxiredoxin 1 as a novel interaction partner for the lifespan regulator protein p66Shc” (Aging, 2009).
Numbering of substitutions follows the chain as printed. Several values for one entry are separate records, joined by “and”; a condition that tells them apart may be missing. Equal entries are not always repeated.

B1: p66CH2CB WT (N-terminal domains CH2 and CB of p66Shc, residues 1-150) (domain or fragment, UniProt P29353-1 1-150, looked up)
chain: MDLLPPKPKYNPLRNESLSSLEEGASGSTPPEELPSPSASSLGPILPPLPGDDSPTTLCSFFPRMSNLRLANPAGGRPGSKGEPGRAADDGEGIVGAAMPDSGPLPLLQDMNKLSGGGGRRTRVEGGQLGGEEWTRHGSFVNKPTRGWLH
notes: p66Shc (largest polypeptide of the shcA locus), residues 1-150 (CH2 and CB domains); Exists as a reduced dimer and an oxidised, disulfide-bridged tetramer; used as a mixture or as isolated states; also called p66Shc N-terminal domain; source: E. coli BL21(DE3)Rosetta2, purified (Talon resin, size exclusion on superose 12)
B2: p66CH2CB-Ser36Asp (domain or fragment, UniProt P29353 1-150, looked up)
chain: B1 chain with S36D
notes: p66Shc, residues 1-150 (CH2 and CB domains), Ser36Asp phosphomimetic; Dimer and tetramer forms were both used; also called Ser36Asp mutant; p66CH2CB-Ser36Asp mutant simulating Ser36 phosphorylation; source: E. coli BL21(DE3)Rosetta2, purified (Talon resin, size exclusion on superose 12)
B3: Peroxiredoxin 1 (Prx1) WT, recombinant (enzyme, mouse, UniProt P35700 1-199, looked up)
chain: MSSGNAKIGYPAPNFKATAVMPDGQFKDISLSEYKGKYVVFFFYPLDFTFVCPTEIIAFSDRADEFKKLNCQVIGASVDSHFCHLAWINTPKKQGGLGPMNIPLISDPKRTIAQDYGVLKADEGISFRGLFIIDDKGILRQITINDLPVGRSVDEIIRLVQAFQFTDKHGEVCPAGWKPGSDTIKPDVNKSKEYFSKQK
notes: Peroxiredoxin 1, gene PCR-amplified from mouse colon cDNA, cloned into pET151/D-Topo; Mainly a decamer (five dimers) on the BN-gel; also called decameric Prx1; source: E. coli BL21(DE3)Rosetta2, purified (Talon resin, size exclusion on superose 12); copies: 10
B4: Prx1-Cys52Ser (enzyme, mouse, UniProt P35700 1-199, looked up)
chain: B3 chain with C52S
notes: Peroxiredoxin 1 from mouse colon cDNA in pET151/D-Topo, Cys52Ser (peroxidasic cysteine); also called Prx1-Cys52Ser active site mutant; source: E. coli BL21(DE3)Rosetta2, purified (Talon resin, size exclusion on superose 12); copies: 10
B5: Prx1-Cys83Ser (enzyme, mouse, UniProt P35700 1-199, looked up)
chain: B3 chain with C83S
notes: Peroxiredoxin 1 from mouse colon cDNA in pET151/D-Topo, Cys83Ser; Constitutively dimeric; also called Cys83Ser regulatory mutant; dimeric Prx1-Cys83Ser mutant; source: E. coli BL21(DE3)Rosetta2, purified (Talon resin, size exclusion on superose 12)

Experiments:
[1] = target: the molecule itself; assay: native gel or EMSA; BN-PAGE of purified recombinant proteins incubated for 1 hour at room temperature (20 μg p66CH2CB with 40 μg Prx1 WT or 20 μg Prx1-Cys83Ser); bands cut out and separated in a second, denaturing SDS-PAGE dimension
[2] = target: the molecule itself; assay: SEC; oligomeric states separated on a superose 12 column in 20 mM Tris pH 7.8 + 150 mM NaCl
[3] = target: B1; assay: native gel or EMSA; BN-PAGE of purified recombinant proteins incubated for 1 hour at room temperature (20 μg p66CH2CB with 40 μg Prx1 WT or 20 μg Prx1-Cys83Ser); bands cut out and separated in a second, denaturing SDS-PAGE dimension; conditions: both partners purified
[4] = target: the molecule itself; assay: native gel or EMSA; BN-PAGE; 15 μg p66CH2CB with 30 μg decameric Prx1-Cys52Ser and 5/10/20 μg Trx1 in the presence of 3 mM EDTA

| Binder | stoichiometry N [1] | stoichiometry N [2] | further results |
| --- | --- | --- | --- |
| B1 | 4 | 2 |  |
| B2 |  | 2 and 4 |  |
| B3 |  |  | stoichiometry N [3]: 1 |
| B4 |  |  | stoichiometry N [4]: 10 |
| B5 | 2 |  |  |
